Assay results reported in the supplement of paper PMC9170038.

What was measured:
[1] = test system: MS2 coat protein; test: apparent KD of MS2 coat protein, switch ON state; designed switch direction (-1 OFF switch, 1 ON switch): -1; higher = weaker reporter binding; conditions: FMN input: 0 or 200 uM; Eterna round: R93 (includes R88 designs)
How it was run: (§1)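 On-chip transcription from Illumina sequencing clusters produced the designed RNA switches. These were titrated with SNAP-549-labelled MS2 coat protein (twofold steps, 0.7 or 1.5 nM to 3 µM) in 100 mM Tris-HCl pH 7.5, 80 mM KCl, 4 mM MgCl2, with or without constant ligand. The apparent KD given is the per-design median of normalised cluster binding-curve fits.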

[2] = test system: MS2 coat protein; test: apparent KD of MS2 coat protein, switch OFF state (with FMN for OFF switches, without FMN for ON switches); designed switch direction (-1 OFF switch, 1 ON switch): -1; higher = weaker reporter binding; conditions: FMN input: 0 or 200 uM; Eterna round: R93 (includes R88 designs)
How it was run: as §1

Sequence	apparent KD of MS2 coat protein [1]	apparent KD of MS2 coat protein [2]
AACAGUACAGGAUAUACAUGAGGAUCACCCAUGUCAGAAUUAAGCAGCGUAACACAAAGUAGAAGGGUAAUGGA [Ruby 18]	46 nM	41.1 nM
AACAGUACAGGAUAUACAUGAGGAUCACCCAUGUGAGAAUUAAGUGGAGGACCACAAAGUAGAAGGGUACUGAA [Mat - Exclusion 3 - JL mod - D9]	56.9 nM	109 nM
AACAGUACAGGAUAUACAUGAGGAUCACCCAUGUGAGAAUUAAGUGGCGUACCACAAAGUAGAAGGGUACUGGA [JL Maslow Revisted mod 16]	35 nM	173 nM
AACAGUACAGGAUAUACAUGAGGAUCACCCAUGUGAGAAUUAAGUGGCGUACCACAAAGUAGAAGGGUACUGGA [Maslow Revisited]	35 nM	173 nM
AACAGUACAGGAUAUACAUGAGGAUCACCCAUGUGGGAAUUAAGUGGCGUACCACAAUGUAGAAGGGUACUGGA [JL In the Red]	129 nM	228 nM
AACAGUACAGGAUAUACAUGAGGAUCACCCAUGUGGGUAAAAAGAUCGAGAGAUCAAUGUAGAAGGGUACUGGA [JL In the Red 04]	259 nM	104 nM
AACAUACAUGAGGAUCACCCAUGUCAGGAUAUGCCGGGUUAGAAAAAAAAAAAAAAACGUAGAAGGGACAAAAA [Bilbo Confounded 3 - Jieux - Exclusion 1]	62.4 nM	62.2 nM
AACAUGUAAGGAUAUUGAAGAAAAGAAAAGAAAGAAAAGAACAAGAAGGUACAUGAGGAUCACCCAUGUAAGAA [EteRNA is fun!]	33.7 nM	18.6 nM
AACAUGUCAGGAUAUAAAAGAAAAGAAAAGAAAGAAAAGAAUUAGAAGGGACAUGAGGAUCACCCAUGUAAGAA [EteRNA is fun!]	33 nM	28.9 nM
AACUGACAUGAGGAUCACCCAUGUCAGGAUAUGACAUCGAAAAAUAAAUAAAUCGUUGUCAGAAGGGACAUGGA [Design 74: Sub-opt RB]	25.1 nM	38 nM
AACUGACAUGAGGAUCACCCAUGUCAGGAUAUGCUUAAUAAAAAAAAAAAAAAAUGAUGCAGAAGGGAUAUGGG [Amethyst 56]	23.7 nM	18.9 nM
AACUGACAUGAGGAUCACCCAUGUCAGGAUAUGCUUCAUAAAAAAAAAAAAAAAUGAUGCAGAAGGGACAUGAA [Design 25 :P Sub-opt 1]	13 nM	14.1 nM
AACUGUACAGGAUAUACAUGAGGAUCACCCAUGUGAGAAUUAAGUGGAAAACCACAAAGUAGAAGGGUACAGGA [Mat - Exclusion 3 - JL mod - D18]	27.6 nM	136 nM
AACUGUACAGGAUAUACAUGAGGAUCACCCAUGUGAGAAUUAAGUGGAGAACCACAAAGUAGAAGGGUACAGGA [Mat - Exclusion 3 - JL mod - D17]	45.7 nM	218 nM
AAGAAACAUGAGGAUCACCCAUGUCAGGAUAUCGAAGAAAGAAAGAAAGAAAGAAGAACGAGAAGGGACAAAGG [Gaius Iulius Aquila]	44.4 nM	60.4 nM
AAGAAACGAGGAUAUACAUGAGGAUCACCCAUGUAAAAGAAAGAAAAGGGAAAGAAAAGUAGAAGGCGUAAGAA [Usermaatre-sekheperenre Ramesses V]	30.4 nM	37 nM
AAGAACAAAGGAUAUACAAGGAAGAAAGAAAAGAAAAGAAAACAUGAGGAUCACCCAUGUAGAAGGUUGUAGAA [EteRNA is fun!]	24.7 nM	20.7 nM
AAGAACACAGGAUAUACAUGAGGAUCACCCAUGUAAAAGAAAGAAGGGAAAGAGAAAAGUAGAAGGGUGAAGAA [Ker]	33.1 nM	36.6 nM
AAGAACAGAGGAUAUACAAAAUAAAAGAAAAGAAAGAAAGAACAUGAGGAUCACCCAUGUAGAAGGCUGAAGAA [Sonbef]	28.2 nM	24.1 nM
AAGAACAGAGGAUAUACAUGAGGAUCACCCAUGUAAAAGAAAGAGGGAAAAGAGAAAAGUAGAAGGCUGAAGAA [Arsinoe III]	26.9 nM	31 nM
